Results on 1 molecule are retold here after patent US20230287117A1 (published 2023).

Holding throughout (assay): SPR steady state
One test addresses T1, His-tagged human FcyRIIB (human, UniProt P31994 46-217).
T1 chain: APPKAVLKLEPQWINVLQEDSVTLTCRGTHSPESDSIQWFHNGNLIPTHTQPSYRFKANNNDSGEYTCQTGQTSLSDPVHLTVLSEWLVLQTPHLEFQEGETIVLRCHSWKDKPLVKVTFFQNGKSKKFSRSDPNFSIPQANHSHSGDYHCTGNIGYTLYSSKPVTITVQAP

Test [1] has as its target His-tagged human FcyRIIIA (human, UniProt P08637 17-208).
In the next test the target is T2, His-tagged human FcyRIIA (human, UniProt P12318 36-218).
T2 chain: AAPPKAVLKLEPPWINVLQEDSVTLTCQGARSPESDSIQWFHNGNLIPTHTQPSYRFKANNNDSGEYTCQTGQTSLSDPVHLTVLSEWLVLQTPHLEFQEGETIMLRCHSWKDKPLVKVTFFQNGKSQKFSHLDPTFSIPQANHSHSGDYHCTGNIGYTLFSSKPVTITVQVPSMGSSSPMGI

Sequence of His-tagged human FcyRIIIA (P08637 17-208): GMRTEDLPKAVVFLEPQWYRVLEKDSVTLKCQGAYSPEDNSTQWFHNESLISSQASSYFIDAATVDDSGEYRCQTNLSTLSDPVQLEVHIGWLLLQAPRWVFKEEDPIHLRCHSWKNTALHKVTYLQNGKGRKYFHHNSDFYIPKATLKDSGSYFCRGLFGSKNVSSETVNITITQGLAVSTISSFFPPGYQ

B1: Control Antibody A (Lot- L2), 9F7_VH_IgG4 (antibody)
constant: ASTKGPSVFPLAPCSRSTSESTAALGCLVKDYFPEPVTVSWNSGALTSGVHTFPAVLQSSGLYSLSSVVTVPSSSLGTKTYTCNVDHKPSNTKVDKRVESKYGPPCPSCPAPEFLGGPSVFLFPPKPKDTLMISRTPEVTCVVVDVSQEDPEVQFNWYVDGVEVHNAKTKPREEQFNSTYRVVSVLTVLHQDWLNGKEYKCKVSNKGLPSSIEKTISKAKGQPREPQVYTLPPSQEEMTKNQVSLTCLVKGFYPSDIAVEWESNGQPENNYKTTPPVLDSDGSFFLYSRLTVDKSRWQEGNVFSCSVMHEALHNRFTQKSLSLSLGK
Turning to B1, the dissociation constant (Kd) in the test with His-tagged human FcyRIIB was found to be 2.2 µM; in test [1] it was 140 µM; in the test with His-tagged human FcyRIIA it was 16.8 µM.
